Experimental data: patent US20190233493A1 (Sanofi, published 2019)
*1 amine or outer side, *2 acyl side, *3 side chain or, on linkers, in order; H or OH if unused. Primed or numbered codes have the meaning given here. Side-chain parts run from the residue outwards. [ ]: non-standard residue; d: D form. The star is where a group is joined. PEG4′ = 2-[2-[2-[2-[2-aminoethoxy]ethoxy]ethoxy]ethoxy]propanoyl; Lys(Me3) = C[N+](C)(C)CCCC[C@H](N)C(=O)O; αMeW = C[C@](N)(Cc1c[nH]c2ccccc12)C(=O)O; γGlu = O=C(O)[C@H](CCC(=O)[*:2])N[*:1]; Arg(Me) = CNC(=N)NCCC[C@H](N)C(=O)O; Stearoyl = CCCCCCCCCCCCCCCCCC(=O)*; Palmitoyl = CCCCCCCCCCCCCCCC(=O)*; Cit = NC(=O)NCCC[C@H](N)C(=O)O; αMeK = C[C@](N)(CCCCN)C(=O)O; Lauroyl = CCCCCCCCCCCC(=O)*; Nle = CCCC[C@H](N)C(=O)O; PEG2′ = PEG2 spacer unit; PEG2″ = not defined here; Aib = CC(C)(N)C(=O)O

T1: RXFP1 receptor (UniProt Q9HBX9 1-757, limits assumed)
T1 sequence (looked up): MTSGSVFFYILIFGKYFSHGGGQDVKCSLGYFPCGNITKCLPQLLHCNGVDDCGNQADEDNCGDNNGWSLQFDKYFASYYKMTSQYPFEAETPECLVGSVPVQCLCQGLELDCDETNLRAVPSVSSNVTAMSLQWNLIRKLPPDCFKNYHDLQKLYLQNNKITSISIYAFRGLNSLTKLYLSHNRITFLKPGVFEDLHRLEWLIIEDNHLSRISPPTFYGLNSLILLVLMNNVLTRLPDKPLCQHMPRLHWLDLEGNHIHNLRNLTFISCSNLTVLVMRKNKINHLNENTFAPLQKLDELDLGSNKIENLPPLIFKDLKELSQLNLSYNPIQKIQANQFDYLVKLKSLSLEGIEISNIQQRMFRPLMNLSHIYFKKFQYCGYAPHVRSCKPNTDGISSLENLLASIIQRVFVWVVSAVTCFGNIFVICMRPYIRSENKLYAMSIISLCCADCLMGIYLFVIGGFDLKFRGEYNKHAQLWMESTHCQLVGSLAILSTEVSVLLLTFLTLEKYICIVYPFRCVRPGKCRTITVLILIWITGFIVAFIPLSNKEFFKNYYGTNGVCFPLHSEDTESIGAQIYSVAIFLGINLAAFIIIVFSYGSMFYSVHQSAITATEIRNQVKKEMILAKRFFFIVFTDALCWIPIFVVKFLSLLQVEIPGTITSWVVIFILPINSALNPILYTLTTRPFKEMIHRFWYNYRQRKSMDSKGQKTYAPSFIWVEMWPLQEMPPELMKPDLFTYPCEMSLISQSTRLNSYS


biological target: T1, RXFP1 receptor; assay: cell-based or functional assay

Binder | EC50 (nM), OVCAR 5 cells (cAMP) [nM] | EMax, OVCAR 5 cells (cAMP) [%]
Ac-LEGREKVRAQI[Aib][Aib]EG[Nle]STWS[Aib]RKK(Ac)[PEG2′][PEG2′][PEG2′][PEG2′][γGlu][γGlu]K([γGlu-Palmitoyl])-NH2 [peptide of SEQ ID NO: 121] | 0.76 | 91
Ac-LEGREKVRAQI[Aib][Aib]EG[Nle]STWS[Aib]RK[PEG2′]K([PEG2′-PEG2′-γGlu-γGlu-γGlu-Palmitoyl])-NH2 [peptide of SEQ ID NO: 13] | 8.1 | 81
Ac-LEGREKVRAK(Ac)I[Aib][Aib]EGQSTWS[Aib]RKK(Ac)K([PEG2″-PEG2″-PEG2″-γGlu-γGlu-γGlu-Stearoyl])-NH2 [peptide of SEQ ID NO: 113] | 0.53 | 89
Ac-LEGREKVRAK(Ac)I[Aib][Aib]EG[Nle]STWS[αMeK]RKK(Ac)[PEG2′][PEG2′][PEG2′][PEG2′]K([γGlu-γGlu-γGlu-γGlu-Palmitoyl])-NH2 [peptide of SEQ ID NO: 131] | 0.26 | 92
Ac-LEGREKVRAK(Ac)I[Aib][Aib]EG[Nle]STWS[αMeK]RAK(Ac)K([PEG2′-PEG2′-PEG2′-PEG2′-γGlu-γGlu-γGlu-Stearoyl])-NH2 [peptide of SEQ ID NO: 135] | 0.95 | 97
Ac-LEGREKVRAQI[Aib][Aib]EG[Nle]STWS[Aib]RKK(Ac)[PEG2′][PEG2′][γGlu][γGlu]K([γGlu-Palmitoyl])-NH2 [peptide of SEQ ID NO: 118] | 1.79 | 86
Ac-LEGREKVRAK(Ac)I[Aib][Aib]EG[Nle]STWS[Aib]RKK(Ac)[PEG2″][PEG2″][PEG2″]K([γGlu-γGlu-γGlu-Palmitoyl])-NH2 [peptide of SEQ ID NO: 114] | 1.34 | 90
Ac-LEGREKVRAK(Ac)I[Aib][Aib]EG[Nle]STWS[Aib][Cit]AK(Ac)K([PEG2′-PEG2′-PEG2′-γGlu-γGlu-γGlu-Stearoyl])-NH2 [peptide of SEQ ID NO: 126] | 9.6 | 91
Ac-LEGREKVRAK(Ac)I[Aib][Aib]EG[Nle]STWS[Aib]RKK(Ac)[PEG4′][PEG4′]K([γGlu-γGlu-γGlu-Stearoyl])-NH2 [peptide of SEQ ID NO: 124] | 0.29 | 88
Ac-LEGREKVRAK(Ac)I[Aib][Aib]EG[Nle]STWS[Aib]RKK(Ac)[PEG2′][PEG2′][PEG2′][γGlu][γGlu]K([γGlu-Palmitoyl])-NH2 [peptide of SEQ ID NO: 117] | 1.16 | 86
Ac-LEGREKVRAK(Ac)I[Aib][Aib]EG[Nle]STWS[Aib]RKK(Ac)[PEG4′]K([γGlu-γGlu-γGlu-Stearoyl])-NH2 [peptide of SEQ ID NO: 123] | 0.38 | 88
Ac-LEGREKVRAK(Ac)I[Aib][Aib]EG[Nle]ST[αMeW]S[αMeK]RKK(Ac)[PEG2′][PEG2′][PEG2′]K([γGlu-γGlu-γGlu-γGlu-Palmitoyl])-NH2 [peptide of SEQ ID NO: 125] | 0.1 | 89
Ac-LEGREKVRAK(Ac)I[Aib][Aib]EG[Nle]STWSXRKK(Ac)[PEG2′][PEG2′][PEG2′][PEG2′][γGlu][γGlu][γGlu]K([γGlu-Palmitoyl])-NH2 (not fully specified (some residues); printed as Ac-L-E-G-R-E-K-V-R-A-K(Ac)-I-Aib-Aib-E-G-Nle-S-T-W-S-Mly-R-K-K(Ac)-PEG2-PEG2-PEG2-PEG2-gE-gE-gE-K(gE-Palm)-NH2) [peptide of SEQ ID NO: 136] | 0.03 | 92
Ac-LEGREKVRAK(Ac)I[Aib][Aib]EG[Nle]STWS[Aib]RKK(Ac)K([PEG2′-PEG2′-PEG2′-γGlu-γGlu-γGlu-γGlu-Stearoyl])-NH2 [peptide of SEQ ID NO: 128] | 0.22 | 91
Ac-LEGREKVRAK(Ac)I[Aib][Aib]EG[Nle]STWS[Aib]RKK(Ac)K([PEG2′-PEG2′-PEG2′-PEG2′-γGlu-γGlu-γGlu-γGlu-Palmitoyl])-NH2 [peptide of SEQ ID NO: 130] | 0.3 | 93
Ac-LEGREKVRAK(Ac)I[Aib][Aib]EGQSTWS[Aib]RKKK([PEG2′-PEG2′-PEG2′-γGlu-γGlu-γGlu-γGlu-Stearoyl])-NH2 [peptide of SEQ ID NO: 115] | 0.17 | 93
Ac-LEGREKVRAK(Ac)I[Aib][Aib]EG[Nle]STWS[Aib]RKK(Ac)[PEG2′][PEG2′][PEG2′][PEG2′][γGlu][γGlu]K([γGlu-Palmitoyl])-NH2 [peptide of SEQ ID NO: 116] | 1 | 89
Ac-LEGREKVRAK(Ac)I[Aib][Aib]EG[Nle]STWS[Aib]RKK(Ac)[PEG2′][PEG2′][PEG2′]K([γGlu-γGlu-γGlu-Stearoyl])-NH2 [peptide of SEQ ID NO: 14] | 0.04 | 88
Ac-LEGREKVRAK(Ac)I[Aib][Aib]EG[Nle]STWS[αMeK][Cit]KK(Ac)K([PEG2′-PEG2′-PEG2′-γGlu-γGlu-γGlu-Stearoyl])-NH2 [peptide of SEQ ID NO: 129] | 1 | 89

More lines, now with the values ahead:

EC50 (nM), OVCAR 5 cells (cAMP) [nM] | EMax, OVCAR 5 cells (cAMP) [%] | Binder
1.7 | 87 | Ac-LEGREKVRAK(Ac)I[Aib][Aib]EG[Nle]STWS[αMeK][Cit]AK(Ac)K([PEG2′-PEG2′-PEG2′-PEG2′-γGlu-γGlu-γGlu-Stearoyl])-NH2 [peptide of SEQ ID NO: 132]
1.21 | 83 | Ac-LEGREKVRAQI[Aib][Aib]EG[Nle]STWS[Aib]RKK(Ac)[PEG2′][PEG2′][PEG2′][γGlu][γGlu]K([γGlu-Palmitoyl])-NH2 [peptide of SEQ ID NO: 119]
0.21 | 92 | Ac-LEGREKVRAK(Ac)I[Aib][Aib]EG[Nle]STWS[Aib][Arg(Me)][Lys(Me3)]K(Ac)K([PEG2′-PEG2′-PEG2′-γGlu-γGlu-γGlu-Stearoyl])-NH2 [peptide of SEQ ID NO: 137]
0.01 | 83 | Ac-LEGREKVRAK(Ac)I[Aib][Aib]EG[Nle]STWS[Aib][Arg(Me)]KK(Ac)K([PEG2′-PEG2′-PEG2′-γGlu-γGlu-γGlu-Stearoyl])-NH2 [peptide of SEQ ID NO: 133]
6.3 | 100 | Ac-LEGREKVRAK(Ac)I[Aib][Aib]EG[Nle]STWS[Aib]R[Lys(Me3)]K(Ac)K([PEG2′-PEG2′-PEG2′-γGlu-γGlu-γGlu-Stearoyl])-NH2 [peptide of SEQ ID NO: 134]
26.7 | 76 | Ac-LEGREKVRAQI[Aib][Aib]EG[Nle]STWS[Aib]RK[PEG2′]K([PEG2′-γGlu-γGlu-γGlu-Palmitoyl])-NH2 [peptide of SEQ ID NO: 12]
0.32 | 88 | Ac-LEGREKVRAK(Ac)I[Aib][Aib]EG[Nle]STFS[Aib]RKK(Ac)K([PEG2″-PEG2″-PEG2″-γGlu-γGlu-γGlu-Stearoyl])-NH2 [peptide of SEQ ID NO: 112]
0.1 | 93 | LEGREKVRAQIXXEGXSTWSXRKKKX (Ac-L-E-G-R-E-K-V-R-A-Q-I-Aib-Aib-E-G-Nle-S-T-W-S-Aib-R-K-K-K-PEG4-PEG4-K(gE-gE-gE-gE-gE-Stea)-NH2) [peptide of SEQ ID NO: 122]
110 | 92 | Ac-LEGREKVRAK(Ac)I[Aib][Aib]EG[Nle]STWS[Aib]RKK(Ac)K([PEG2′-PEG2′-PEG2′-γGlu-γGlu-γGlu-Lauroyl])-NH2 [peptide of SEQ ID NO: 120]
